According to article PMC5646246, “Unraveling the Self-Assembly of the Pseudomonas aeruginosa XcpQ Secretin Periplasmic Domain Provides New Molecular Insights into Type II Secretion System Secreton Architecture and Dynamics” (mBio, 2017):
Several values for one entry are separate records, joined by “and”; a condition that tells them apart may be missing. Identical values can stand only once.

Assays:
[1] = molecular target: T1, XcpQ_(N012) (N0, N1 and N2 subdomains of the periplasmic N-terminal domain of the P. aeruginosa XcpQ secretin) (Pseudomonas aeruginosa, UniProt P35818); experiment: SEC; vHH04 mixed with the preformed XcpQ_(N012) multimer (dodecamer); shift of the H peak; conditions: both partners purified
T1 construct: XcpQ secretin of the Xcp type II secretion system, Pseudomonas aeruginosa; subdomains N0, N1 and N2; 26 kDa; the whole N domain covers residues 51 to 365; Found in solution as dimers (L) and dodecamers (H); also called matured XcpQ_(N012); untagged XcpQ_(N012)

[2] = molecular target: T2, XcpQ_(N012) with biotin tag (fixed on streptavidin sensors) (Pseudomonas aeruginosa) (UniProt P35818); experiment: BLI; XcpQ_(N012) fixed on streptavidin sensors by a biotin tag; soluble vHH04 from 0.156 to 10 µM
T2 sequence (chain, biotin (biotin tag, site not stated)): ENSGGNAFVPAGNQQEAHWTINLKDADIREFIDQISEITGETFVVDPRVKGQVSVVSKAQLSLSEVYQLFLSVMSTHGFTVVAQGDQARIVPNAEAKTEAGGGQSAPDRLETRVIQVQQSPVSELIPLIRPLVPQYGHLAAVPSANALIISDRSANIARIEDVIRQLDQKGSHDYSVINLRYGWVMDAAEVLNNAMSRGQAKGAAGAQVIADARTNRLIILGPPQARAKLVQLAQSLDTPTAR

[3] = molecular target: the molecule itself; experiment: cross-linking; in vivo disulfide cross-linking of V5-tagged full-length XcpQ variants in P. aeruginosa PAO1 ΔxcpQ; membranes with N-ethylmaleimide, SDS-PAGE denaturing, nonreducing or reducing, anti-V5 blot
[4] = molecular target: the molecule itself; experiment: negative-staining single-particle electron microscopy; SEC fractions diluted to 0.02-0.05 mg/ml, uranyl acetate stain, EMAN2 2D classes; 3D reconstruction with C6 symmetry imposed for the Trx fusions
[5] = molecular target: the molecule itself; experiment: SEC + cross-linking; XcpQ_(N012)-T54C-Q86C without H2O2 treatment, HiLoad Superdex 200 16/600; oligomeric fractions on SDS-PAGE under reducing and nonreducing conditions
[6] = molecular target: the molecule itself; experiment: SEC; HiLoad 16/600 Superdex 200 column calibrated with standard proteins; purified protein alone
[7] = molecular target: T3, chitin binding protein D (CbpD), Xcp T2SS effector (Pseudomonas aeruginosa, UniProt Q9I589 26-389); experiment: BLI; sensor coupled to CbpD or to XcpPp; XcpQ_(N012) alone or the XcpQ_(N012)-vHH04 complex in solution; conditions: both partners purified
T3 construct: Coupled to the BLi sensor; source: purified
T3 sequence: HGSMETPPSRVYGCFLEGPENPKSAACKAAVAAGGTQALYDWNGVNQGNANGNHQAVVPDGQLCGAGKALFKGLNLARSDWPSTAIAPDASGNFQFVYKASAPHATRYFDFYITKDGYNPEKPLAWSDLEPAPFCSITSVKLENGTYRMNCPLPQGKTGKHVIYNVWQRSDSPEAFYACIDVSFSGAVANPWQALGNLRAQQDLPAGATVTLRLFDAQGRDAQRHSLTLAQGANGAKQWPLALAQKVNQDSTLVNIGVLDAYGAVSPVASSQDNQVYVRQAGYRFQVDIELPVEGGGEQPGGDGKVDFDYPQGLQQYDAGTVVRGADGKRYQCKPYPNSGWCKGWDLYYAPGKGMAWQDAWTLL

B1: vHH04 nanobody directed against XcpQN (VHH)
VHH: QVQLVESGGGSVQAGGSLRLSCAASGNTDSSYYMGWFRQGPGKEREGVASIYIRAGIPYYTDSVKGRFTISQDNAKNTIYLQMNSLKPEDTAMYFCAGSVRTTIQPFKGNYYNYWGRGTQVTVSS
notes: camel nanobody; About 16 kDa; For the in vivo interference the histidine-tagged vHH04 was produced in the periplasm of P. aeruginosa PAO1 (IPTG-inducible); also called histidine-tagged vHH04; His-tagged vHH04; source: E. coli WK6, purified
stoichiometry N [1]: 6 vHH04 per XcpQ_(N012) dodecamer | Kd [2]: 5.6 µM

B2: full-length XcpQ-S210C (natural protein)
chain: ENSGGNAFVPAGNQQEAHWTINLKDADIREFIDQISEITGETFVVDPRVKGQVSVVSKAQLSLSEVYQLFLSVMSTHGFTVVAQGDQARIVPNAEAKTEAGGGQSAPDRLETRVIQVQQSPVSELIPLIRPLVPQYGHLAAVPSANALIISDRSANIARIEDVIRQLDQKGSHDYCVINLRYGWVMDAAEVLNNAMSRGQAKGAAGAQVIADARTNRLIILGPPQARAKLVQLAQSLDTPTARSANTRVIRLRHNDAKTLAETLGQISEGMKNNGGQGGEQTGGGRPSNILIRADESTNALVLLADPDTVNALEDIVRQLDVPRAQVLVEAAIVEISGDIQDAVGVQWAINKGGMGGTKTNFANTGLSIGTLLQSLESNKAPESIPDGAIVGIGSSSFGALVTALSANTKSNLLSTPSLLTLDNQKAEILVGQNVPFQTGSYTTNSEGSSNPFTTVERKDIGVSLKVTPHINDGAALRLEIEQEISALLPNAQQRNNTDLITSKRSIKSTILAENGQVIVIGGLIQDDVSQAESKVPLLGDIPLLGRLFRSTKDTHTKRNLMVFLRPTVVRDSAGLAALSGKKYSDIRVIDGTRGPEGRPSILPTNANQLFDGQAVDLRELMTE
modifications: disulfide bridge between S210C of two chains
notes: XcpQ secretin, Pseudomonas aeruginosa, full length; Made with its own signal peptide and exported to the envelope; source: P. aeruginosa PAO1 ΔxcpQ, pJN vector, arabinose-induced, in membrane samples; not shown: V5, C-terminal, kept
stoichiometry N [3]: 2

B3: full-length XcpQ-T54C-Q86C (natural protein)
chain: ENSGGNAFVPAGNQQEAHWCINLKDADIREFIDQISEITGETFVVDPRVKGCVSVVSKAQLSLSEVYQLFLSVMSTHGFTVVAQGDQARIVPNAEAKTEAGGGQSAPDRLETRVIQVQQSPVSELIPLIRPLVPQYGHLAAVPSANALIISDRSANIARIEDVIRQLDQKGSHDYSVINLRYGWVMDAAEVLNNAMSRGQAKGAAGAQVIADARTNRLIILGPPQARAKLVQLAQSLDTPTARSANTRVIRLRHNDAKTLAETLGQISEGMKNNGGQGGEQTGGGRPSNILIRADESTNALVLLADPDTVNALEDIVRQLDVPRAQVLVEAAIVEISGDIQDAVGVQWAINKGGMGGTKTNFANTGLSIGTLLQSLESNKAPESIPDGAIVGIGSSSFGALVTALSANTKSNLLSTPSLLTLDNQKAEILVGQNVPFQTGSYTTNSEGSSNPFTTVERKDIGVSLKVTPHINDGAALRLEIEQEISALLPNAQQRNNTDLITSKRSIKSTILAENGQVIVIGGLIQDDVSQAESKVPLLGDIPLLGRLFRSTKDTHTKRNLMVFLRPTVVRDSAGLAALSGKKYSDIRVIDGTRGPEGRPSILPTNANQLFDGQAVDLRELMTE
modifications: disulfide bridge between T54C and Q86C of two chains
notes: as for B2
stoichiometry N [3]: 2

B4: Trx-XcpQ_(N012)-S210C (domain or fragment)
chain: ENSGGNAFVPAGNQQEAHWTINLKDADIREFIDQISEITGETFVVDPRVKGQVSVVSKAQLSLSEVYQLFLSVMSTHGFTVVAQGDQARIVPNAEAKTEAGGGQSAPDRLETRVIQVQQSPVSELIPLIRPLVPQYGHLAAVPSANALIISDRSANIARIEDVIRQLDQKGSHDYCVINLRYGWVMDAAEVLNNAMSRGQAKGAAGAQVIADARTNRLIILGPPQARAKLVQLAQSLDTPTAR
notes: XcpQ secretin, Pseudomonas aeruginosa; subdomains N0, N1 and N2; Uncleaved thioredoxin fusion of m3; source: E. coli BL21(DE3)pLysS, purified; copies: 12
binding result [4]: binds

B5: XcpQ_(N012)-T54C-Q86C (domain or fragment)
chain: ENSGGNAFVPAGNQQEAHWCINLKDADIREFIDQISEITGETFVVDPRVKGCVSVVSKAQLSLSEVYQLFLSVMSTHGFTVVAQGDQARIVPNAEAKTEAGGGQSAPDRLETRVIQVQQSPVSELIPLIRPLVPQYGHLAAVPSANALIISDRSANIARIEDVIRQLDQKGSHDYSVINLRYGWVMDAAEVLNNAMSRGQAKGAAGAQVIADARTNRLIILGPPQARAKLVQLAQSLDTPTAR
modifications: disulfide bridges between T54C and Q86C of neighbouring chains
notes: XcpQ secretin, Pseudomonas aeruginosa; subdomains N0, N1 and N2; source: E. coli BL21(DE3)pLysS, purified (same protocol as XcpQ_(N012), SEC without H2O2 treatment)
stoichiometry N [5]: 12 and 4 and 6

B6: Trx-XcpQ_(N012) fusion protein (domain or fragment)
chain: ENSGGNAFVPAGNQQEAHWTINLKDADIREFIDQISEITGETFVVDPRVKGQVSVVSKAQLSLSEVYQLFLSVMSTHGFTVVAQGDQARIVPNAEAKTEAGGGQSAPDRLETRVIQVQQSPVSELIPLIRPLVPQYGHLAAVPSANALIISDRSANIARIEDVIRQLDQKGSHDYSVINLRYGWVMDAAEVLNNAMSRGQAKGAAGAQVIADARTNRLIILGPPQARAKLVQLAQSLDTPTAR
notes: XcpQ secretin, Pseudomonas aeruginosa; subdomains N0, N1 and N2; Uncleaved thioredoxin fusion of m1; also called Trx-Q_(N012); source: E. coli BL21(DE3)pLysS, purified (SEC); copies: 12
stoichiometry N [6]: 12

B7: XcpQ_(N012) (N0, N1 and N2 subdomains of the periplasmic N-terminal domain of the P. aeruginosa XcpQ secretin) (domain or fragment, Pseudomonas aeruginosa)
chain: ENSGGNAFVPAGNQQEAHWTINLKDADIREFIDQISEITGETFVVDPRVKGQVSVVSKAQLSLSEVYQLFLSVMSTHGFTVVAQGDQARIVPNAEAKTEAGGGQSAPDRLETRVIQVQQSPVSELIPLIRPLVPQYGHLAAVPSANALIISDRSANIARIEDVIRQLDQKGSHDYSVINLRYGWVMDAAEVLNNAMSRGQAKGAAGAQVIADARTNRLIILGPPQARAKLVQLAQSLDTPTAR
notes: XcpQ secretin of the Xcp type II secretion system, Pseudomonas aeruginosa; subdomains N0, N1 and N2; 26 kDa; the whole N domain covers residues 51 to 365; Found in solution as dimers (L) and dodecamers (H); also called matured XcpQ_(N012); untagged XcpQ_(N012)
binding result [7]: binds
